# Measured values from patent US20190092819A1 (published 2019).
# Where a chain is given by its changes, count along the chain named. Names may count otherwise.
# B1: Ad3-S5/Kn (ligand, human adenovirus serotype 3, UniProt P04501 60-319, looked up)
# chain: SLQLKVGSGLTVDTTDGSLEENIKVNTPLTKSNHSINLPIGNGLQIEQNKLCSKLGNGLTFDSSNSIALKNNTLWTGPKPEANCIIEYGKQNPDSKLTLILVKNGGIVNGYVTLMGASDYVNTLFKNKNVSINVELYFDATGHILPDSSSLKTDLELKYKQTADFSARGFMPSTTAYPFVLPNAGTHNENYIFGQCYYKASDGALFPLEVTVMLNKRLPDSRTSYVMTFLWSLNAGLAPETTQATLITSPFTFSYIREDD
# notes: domain: fiber knob with shaft motifs (S5)
# B2: Ad3-S3/Kn (ligand, human adenovirus serotype 3, UniProt P04501 94-319, looked up)
# chain: SINLPIGNGLQIEQNKLCSKLGNGLTFDSSNSIALKNNTLWTGPKPEANCIIEYGKQNPDSKLTLILVKNGGIVNGYVTLMGASDYVNTLFKNKNVSINVELYFDATGHILPDSSSLKTDLELKYKQTADFSARGFMPSTTAYPFVLPNAGTHNENYIFGQCYYKASDGALFPLEVTVMLNKRLPDSRTSYVMTFLWSLNAGLAPETTQATLITSPFTFSYIREDD
# notes: domain: fiber knob with shaft motifs (S3)
# B3: dimeric Ad3 fiber knob mutant D261N (ligand)
# chain: MKVSALKEKVSALKEKVSALKEKVSALKEKVSALKEGSGGGSGGGSGGGSNSIALKNNTLWTGPKPEANCIIEYGKQNPDSKLTLILVKNGGIVNGYVTLMGASDYVNTLFKNKNVSINVELYFDATGHILPDSSSLKTDLELKYKQTADFSARGFMPSTTAYPFVLPNAGTHNENYIFGQCYYKASNGALFPLEVTVMLNKRLPDSRTSYVMTFLWSLNAGLAPETTQATLITSPFTFSYIREDD
# B4: dimeric Ad3 fiber knob mutant N186D (ligand)
# chain: B3 chain with N113D, N188D
# notes: Self-dimerizing form (JO-1 format)
# B5: dimeric Ad3 fiber knob mutant N186D, D261N (ligand)
# chain: B3 chain with N113D
# notes: JO-1 format; Positions count on the full Ad3 fiber; also called combination of N186D and D261N
# B6: dimeric Ad3 fiber knob mutant D261N, L296R (ligand)
# chain: B3 chain with L223R
# notes: JO-1 format; Positions count on the full Ad3 fiber; also called combination of D261N and L296R
# B7: dimeric Ad3 fiber knob mutant F265L (ligand)
# chain: B3 chain with N188D, F192L
# notes: JO-1 format
# B8: dimeric Ad3 fiber knob mutant V189G (ligand)
# chain: B3 chain with V116G, N188D
# notes: JO-1 format
# B9: dimeric Ad3 fiber knob mutant L296R (ligand)
# chain: B3 chain with N188D, L223R
# notes: JO-1 format
# B10: dimeric Ad3 fiber knob mutant E299V (ligand)
# chain: B3 chain with N188D, E226V
# notes: JO-1 format
# B11: dimeric Ad3 fiber knob mutant S190P (ligand)
# chain: B3 chain with S117P, N188D
# notes: JO-1 format; also called 5190P
# B12: Ad3-S2/Kn (ligand, human adenovirus serotype 3, UniProt P04501 108-319, looked up)
# chain: NKLCSKLGNGLTFDSSNSIALKNNTLWTGPKPEANCIIEYGKQNPDSKLTLILVKNGGIVNGYVTLMGASDYVNTLFKNKNVSINVELYFDATGHILPDSSSLKTDLELKYKQTADFSARGFMPSTTAYPFVLPNAGTHNENYIFGQCYYKASDGALFPLEVTVMLNKRLPDSRTSYVMTFLWSLNAGLAPETTQATLITSPFTFSYIREDD
# notes: domain: fiber knob with shaft motifs (S2)
# B13: Ad3-S4/Kn (ligand, human adenovirus serotype 3, UniProt P04501 77-319, looked up)
# chain: SLEENIKVNTPLTKSNHSINLPIGNGLQIEQNKLCSKLGNGLTFDSSNSIALKNNTLWTGPKPEANCIIEYGKQNPDSKLTLILVKNGGIVNGYVTLMGASDYVNTLFKNKNVSINVELYFDATGHILPDSSSLKTDLELKYKQTADFSARGFMPSTTAYPFVLPNAGTHNENYIFGQCYYKASDGALFPLEVTVMLNKRLPDSRTSYVMTFLWSLNAGLAPETTQATLITSPFTFSYIREDD
# notes: domain: fiber knob with shaft motifs (S4)
# How the values were obtained:
# [1] = target: Recombinant human DSG2 protein (desmoglein 2), soluble (human) (UniProt Q14126); test: method not named at this place; presumably the SPR of FIG. 7 (noDD forms)
# [2] = target: Desmoglein 2 (DSG2) on cells (human) (UniProt Q14126); test: cell-based or functional assay
# [3] = target: Desmoglein 2 (DSG2) on cells (human) (UniProt Q14126); test: competition: attachment of 3H-labelled Ad3 virus (competitor) to HeLa cells after pre-incubation with dimeric knob; scintillation counting
# [4] = target: T1, soluble CD46 (UniProt P15529 35-343, limits assumed); test: Western blot probed with soluble CD46 and anti-CD46 mAb
# T1 construct: also called sCD46
# T1 sequence (looked up): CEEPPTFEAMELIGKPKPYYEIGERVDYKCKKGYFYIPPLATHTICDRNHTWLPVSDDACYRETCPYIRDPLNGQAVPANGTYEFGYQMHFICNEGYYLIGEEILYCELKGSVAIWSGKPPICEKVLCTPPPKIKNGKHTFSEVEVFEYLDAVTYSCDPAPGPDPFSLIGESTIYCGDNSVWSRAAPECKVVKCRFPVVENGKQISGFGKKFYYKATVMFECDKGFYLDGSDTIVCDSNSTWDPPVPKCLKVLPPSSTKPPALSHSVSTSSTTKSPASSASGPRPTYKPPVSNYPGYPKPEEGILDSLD
# [5] = target: T2, Desmoglein 2 (DSG2) on cells (human, UniProt Q14126 50-1118); test: cell-based or functional assay
# T2 sequence (looked up): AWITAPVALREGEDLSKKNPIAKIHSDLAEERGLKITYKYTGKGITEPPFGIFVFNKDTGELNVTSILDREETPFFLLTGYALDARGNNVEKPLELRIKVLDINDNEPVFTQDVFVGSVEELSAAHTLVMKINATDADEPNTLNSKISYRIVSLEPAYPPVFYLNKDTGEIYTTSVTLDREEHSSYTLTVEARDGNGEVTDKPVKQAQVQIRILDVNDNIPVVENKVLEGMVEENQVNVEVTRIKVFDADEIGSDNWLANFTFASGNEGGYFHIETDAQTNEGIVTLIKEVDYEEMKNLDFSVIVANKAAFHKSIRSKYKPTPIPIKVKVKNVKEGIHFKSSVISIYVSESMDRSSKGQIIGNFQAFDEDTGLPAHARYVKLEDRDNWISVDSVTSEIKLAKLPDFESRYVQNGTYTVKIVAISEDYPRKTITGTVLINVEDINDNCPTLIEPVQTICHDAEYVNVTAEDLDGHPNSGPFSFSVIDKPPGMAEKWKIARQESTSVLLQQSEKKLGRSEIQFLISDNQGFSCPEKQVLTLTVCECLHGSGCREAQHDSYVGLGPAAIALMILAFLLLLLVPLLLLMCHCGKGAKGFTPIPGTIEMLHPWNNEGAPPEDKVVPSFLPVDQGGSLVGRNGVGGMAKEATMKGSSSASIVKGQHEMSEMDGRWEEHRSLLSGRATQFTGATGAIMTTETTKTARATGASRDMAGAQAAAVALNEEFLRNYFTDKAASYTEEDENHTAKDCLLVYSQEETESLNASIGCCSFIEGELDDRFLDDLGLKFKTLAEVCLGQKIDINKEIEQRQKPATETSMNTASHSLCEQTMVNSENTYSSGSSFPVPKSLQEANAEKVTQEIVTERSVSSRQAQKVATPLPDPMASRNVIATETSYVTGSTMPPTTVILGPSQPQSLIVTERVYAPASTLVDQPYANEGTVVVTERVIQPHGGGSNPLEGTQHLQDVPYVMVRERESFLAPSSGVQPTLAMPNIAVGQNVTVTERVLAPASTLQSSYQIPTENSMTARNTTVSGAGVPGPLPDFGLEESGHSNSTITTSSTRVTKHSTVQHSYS
# [6] = target: T2, Desmoglein 2 (DSG2) on cells; test: competition: attachment of 3H-labelled Ad3 virus (competitor) to HeLa cells after pre-incubation with dimeric knob; scintillation counting
# [7] = target: Recombinant human DSG2 protein (desmoglein 2), soluble (human) (UniProt Q14126); test: Western blot of purified dimeric knob (trimer band) probed with soluble recombinant DSG2, anti-DSG2 mAb and anti-mouse IgG-HRP; bands quantified
Molecule,Inhibition of infection in the presence of dimeric knob (JO-1 = 100%) [5],Inhibition of attachment in the presence of dimeric knob (JO-1 = 100%) [6],other results
JO-4 (dimeric affinity-enhanced Ad3 fiber knob mutant Y250F) (ligand),–,–,Kd [1]: 11.4 nM
"dimeric Ad3 fiber knob mutant N186D, D261N, L296R (ligand)",–,–,Inhibition of infection in the presence of dimeric knob (JO-1 = 100%) (% (JO-1 = 100%)) [2]: 0; Inhibition of attachment in the presence of dimeric knob (JO-1 = 100%) (% (JO-1 = 100%)) [3]: 18.5
B1,–,–,binding result [4]: no binding
B2,–,–,binding result [4]: no binding
B3,–,–,Inhibition of infection in the presence of dimeric knob (JO-1 = 100%) (% (JO-1 = 100%)) [2]: 5.3; Inhibition of attachment in the presence of dimeric knob (JO-1 = 100%) (% (JO-1 = 100%)) [3]: 45
B4,32.7 % (JO-1 = 100%),56.5 % (JO-1 = 100%),–
B5,5.2 % (JO-1 = 100%),23.5 % (JO-1 = 100%),Western blot Residual DSG2 binding (wtAd3 knob = 100%) [7]: 7%
B6,1.5 % (JO-1 = 100%),20.1 % (JO-1 = 100%),Western blot Residual DSG2 binding (wtAd3 knob = 100%) [7]: 7%
B7,17.6 % (JO-1 = 100%),55.6 % (JO-1 = 100%),–
B8,54 % (JO-1 = 100%),81 % (JO-1 = 100%),–
B9,5.1 % (JO-1 = 100%),73.7 % (JO-1 = 100%),–
B10,50.7 % (JO-1 = 100%),97.3 % (JO-1 = 100%),–
B11,30.9 % (JO-1 = 100%),73.4 % (JO-1 = 100%),–
B12,–,–,binding result [4]: no binding
B13,–,–,binding result [4]: no binding
